Assay: yeast display, Sf9 membrane polyspecificity reagent, FACS + sequencing; frameworks hold sequencing errors
Method in brief: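 Sorting gates, low and high (top ~1%), were placed on anti-HA fluorescence to track expression and on streptavidin fluorescence to track reagent binding. A clone's polyreactivity label is taken from the gate it came out of. The reagent was 10% biotinylated, detergent-solubilized Sf9 membrane, applied for 1 hour at 4 °C to galactose-induced yeast display cells.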

| Sequence | polyreactivity (PSR sort gate) |
| --- | --- |
| QVQLVESGGGLVQAGGSLRLSCAASGFTLSRYAMGWYRQAPGKERELVAAIRWSGGSTYYADSVKGRFTISRDNAKNTVYLQMNSLKPEDTAVYYCATRYYLKFLDGYNYWGQGTQVTVSS | high polyreactivity |
| QVQLVESGGGLVQAGGSLRLSCAASGFTLTAYAMGWYRQARGKEREFVAAISTSGTRTYYADSVKGRFTISRDNAKNTVYLQMNSLKPEDTAVYYCGARYSGYQYWKFNYWGQGTQVTVSS | high polyreactivity |
| QVQLVESGGGLVQAGGSLRLSCAASGFTLVGYAMGWYRQAPGKERELVAAISSGGRTKYADSVKGRFTFSRDNAKNTVYLQMNSLKPEDTAVYYCKAVFTRGVTQYDHYYWGQGTQVTVSS | high polyreactivity |
| QVQLVESGGGLVQAGGSLRLSCAASGFTLWLNAMGWSRQAPGKERELVAAITTSDDGTYYADSVNGRFTISRDTAKNTVYLQMNSLKPEDTAVYYCAADYYSVLYDYWGQGTQVTVSS | low polyreactivity |
| QVQLVESGGGLVQAGGSLRLSCAASGFTLYEYAMGWYRQAPGKERELVAAISSAGNTNYADSVKGRFTISRDNAKNTVYLQLNSLKPEDTAVYYCAKYRYDYTKTEGGYWGQGTQVTVSS | low polyreactivity |
| QVQLVESGGGLVQAGGSLRLSCAASGFTLYGYAMGWYRQAPGKERELVAGIRYSGGRTYYADSVKGRFTISRDNAKNTVYLQMNSLKPEDTAVYYCAADGGYWRGTGYEYWGQGTQVTVSS | high polyreactivity |
| QVQLVESGGGLVQAGGSLRLSCAASGFTLYGYTMGWSRQAPGKERELVAAITVSGTSTYYADSVKGRFTISRDNAKYTVSLQMNSLKPEDTAVYYCAARPRRRYYGYDSWGQGTQVSVSS | high polyreactivity |
| QVQLVESGGGLVQAGGSLRLSCAASGFTLYGYTMGWYRQAPGKERELVAAISGSGGRTYYADSVKGRFTISRDNAKNTVYLQMNSLKPEDTAVYYCAARHHPEYYYWGQGTQVTVSS | high polyreactivity |
| QVQLVESGGGLVQAGGSLRLSCAASGFTLYNNAMGWYRQAPGKERELVARISGSGGSTYYADSVKGRFTISRDNAKNTVYLQMNSLKPEDTAVYYCNARATYVPTYGYTHWYNYWGQGTQVTVSS | low polyreactivity |
| QVQLVESGGGLVQAGGSLRLSCAASGFTLYPYAKGWYRQAPGKARELVAAISWSVGSTRYADSVKGRFTISRDNAKNTVYLQMNSLKPEDTAVYYCAARPHGRFSQLRVDWGQGTQVTVSS | low polyreactivity |
| QVQLVESGGGLVQAGGSLRLSCAASGFTLYRYAMGWYIQAPGKERELVAAISKRGASSYYADSVKGRFTISRDNAKNTVYLQMNSLKPEDTAVYYCAATISRAYKPVKGHYYLGMDYWGQGTQVTVSS | high polyreactivity |
| QVQLVESGGGLVQAGGSLRLSCAASGFTLYRYAMGWYRQAPGKERELVAAISKRGATSYYADSVKGRFTISRDNAKNTVYLQMNSLKPEDTAVYYCAATISRAYKPVKGHYYLGMDYWGQGTQVTVSS | high polyreactivity |
| QVQLVESGGGLVQAGGSLRLSCAASGFTLYSYAMGWYRQAPGKERELVAAISWSGTRTYYADTVKGRFTISRDNAKNTVYLQMNSLKPEDTAVYYCAARGYRYGYGYWGQCTQVTVSS | high polyreactivity |
| QVQLVESGGGLVQAGGSLRLSCAASGFTLYYYAMGWYRQAPGKERELVAAISTRGGRTYYADSVKGRFTISRDNAKNTVYLQINSLKPEDTAVYYCAAAFSLKSLNTRWTWSRYYYWGQGTQVTVSS | high polyreactivity |
| QVQLVESGGGLVQAGGSLRLSCAASGFTLYYYAMGWYRQAPGKERELVAAISYSGGTTYYADSVKGRFTISRDNAKYTVSLQMNSLKPEDTAVYYCAAEVGGYWADEYLGYDYWGQGTQVTVSS | low polyreactivity |
| QVQLVESGGGLVQAGGSLRLSCAASGFTSDGYAMGWYRQAPGKERELVAAISWRGGSTYYADSVKGRFTISRDNAKNTVYLQMNSLKPEDTAVYYCAKDYYYGLEHYGYWGQGTQVTVSS | low polyreactivity |

| Sequence | polyreactivity (PSR sort gate) |
| --- | --- |
| QVQLVESGGGLVQAGGSLRLSCAASGFTSGYNVMGWYRQEPGKERELVAAISWRGTSTYYADSVKGRFTISRDNAKNTVYLQMNSLKPEDTAVYYCAADRYWRLSGYEYWGQGTQVTVSS | high polyreactivity |
| QVQLVESGGGLVQAGGSLRLSCAASGFTSLGNAMGWYRQAPGKERELVAAISRSGGRTYYADSVKGRFTISRDNAKNTVYLQMNSLKPEDTAVYYCNAVRLYGQGGDYWGQGTQVTVSS | high polyreactivity |
| QVQLVESGGGLVQAGGSLRLSCAASGFTSPTAMGWYRQAPGKVRELVADISVGDGSTYYADSVKGRFTISRDNAKNTVYLQMNSLKREDTAVYYCAAEYWLYWYQDGFGFDYWGQGTQVTVSS | high polyreactivity |
| QVQLVESGGGLVQAGGSLRLSCAASGFTSRLYAMGWYRQAPGKEREFVAAISWDGTRTYYADSVKGRFTISRDNAKNTVYLQMNSLKPEDTAVYYCNARRRQWQARYDYWGQGTQITVSS | high polyreactivity |
| QVQLVESGGGLVQAGGSLRLSCAASGFTSSINAMGWYRQEPGKERELVAAIRSGGSTNYADSVKGRFTISRDNAKNTVYLQMNSLKPEDTAVYYCAAVTRVYGKTMGYWGQGTQVTVSS | high polyreactivity |
| QVQLVESGGGLVQAGGSLRLSCAASGFTVDYYAMGWYLQAPGKERELVAAISSSGGSTYYADSVKGRFTISRDNAKNTVYLLMNSLKPEDTAVYYCATGHSKQYDYWGQGTQVTVSS | high polyreactivity |
| QVQLVESGGGLVQAGGSLRLSCAASGFTVFYNAMGWYRQAPGKERELVAAITARGGGTYYADSVKGRFTISRDNAKNTVYLQMNSLKPEDTAVYYCAADSFIPPYDHWGQGTQVTVSS | low polyreactivity |
| QVQLVESGGGLVQAGGSLRLSCAASGFTVNNNGMGWYIQAPGKERELVASISSRTTSTYYADSVKGRFTFSRDKAKNTDYFQTNSLKPEDTAVYYCAAQAWWDGEYDYWGQGTQVTVSS | high polyreactivity |
| QVQLVESGGGLVQAGGSLRLSCAASGFTVRYYAMGWYRQAPGKERELVAAISWSGGSTYYADSVKGRFTISRDNAKNTVYLQMNSLKPEDTAVYYCNRETSPKVYYPNDYWGQGTQVTVSS | low polyreactivity |
| QVQLVESGGGLVQAGGSLRLSCAASGFTVSYYVMGWYRQAPGKERELVAGISWSGVSTYYADSVKGRFTISRDNAKNTVYLQMNSLKPEDTAVYYCAAGYDFSFFVPVRYTEYDYWGQGTQVTVSS | high polyreactivity |
| QVQLVESGGGLVQAGGSLRLSCAASGFTVTRYAMGWYRQAPGKERELVAAITRSGSSTSYADSVKGRFTISRDNAKNTVSLQINSLKPEDTAVYYCAARLHSPRYRYDYWGQGTQVTVSS | high polyreactivity |
| QVQLVESGGGLVQAGGSLRLSCAASGFTYDNYAMGWYRQAPGKERELVAAIRRSGSRTYYPDSVKGRFTISRDNAKNTVYLQMNSLKPEDTAVYYCAAVWYRLYGYCGQGTQVTVSS | low polyreactivity |
| QVQLVESGGGLVQAGGSLRLSCAASGFTYGVYAMGWYRPAPGKERELVAAISRRGTSTYYADSVKGRFTISRDNAKNTVYLQMNSLKPEDTAVYFCNARRYQVTVDHWGQGTQVTVSS | high polyreactivity |
| QVQLVESGGGLVQAGGSLRLSCAASGFTYKYYAMGWYRQAPGKERELVAAITRGGDTYYADSVKGRFSISRDNAKNTVYLQMNSLKPEDTAVYYCNTASDKRAFDYWGQGTQVTVSS | low polyreactivity |
| QVQLVESGGGLVQAGGSLRLSCAASGFYNTMGWYRQAPGKERELVAAISTGGITNYADSVKGRFTISRDNAKNTVYVLMNSLKPEDTAVYYCPADGYSTVSSSYAYWGQGTQVTVSS | low polyreactivity |
| QVQLVESGGGLVQAGGSLRLSCAASGFYYYAMGWYRQAPGKERELVAVITYSGGSTYYADSVKGRFTISRDNAKNTVYLQMNSVKPEDTAVYYCAADYRPGYDYWGQGTQVTVSS | low polyreactivity |

From the nanobody polyreactivity screen of Harvey et al. (2022)
